Values joined by “and” are separate entries in the source; they are usually repeats but may differ in a detail not shown here. Equal entries are not always repeated.
Tests used:
[1] = target: WDR62 WD40 domain, 1-790 (UniProt O43379); test: streptavidin pull-down, GFP Western blot; details: reference: wild-type C3 fragment; sites T1053
[2] = target: microtubules of porcine brain tubulin (porcine) (UniProt P02550); test: binding to microtubules in vitro
[3] = target: WDR62-N2-GFP (human)
[4] = target: Strep-p80 WD (UniProt Q8BG40 1-315); test: pull-down
Chain of Strep-p80 WD (Q8BG40 1-315): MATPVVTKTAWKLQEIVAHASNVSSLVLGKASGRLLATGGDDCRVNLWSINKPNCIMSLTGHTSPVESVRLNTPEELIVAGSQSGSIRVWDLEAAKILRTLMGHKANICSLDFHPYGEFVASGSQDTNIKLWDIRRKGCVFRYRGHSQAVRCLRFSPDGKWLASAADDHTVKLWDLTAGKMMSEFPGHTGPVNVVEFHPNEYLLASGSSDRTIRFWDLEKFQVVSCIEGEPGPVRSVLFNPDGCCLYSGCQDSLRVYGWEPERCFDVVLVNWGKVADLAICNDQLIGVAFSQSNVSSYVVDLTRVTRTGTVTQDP

[5] = target: T1, Strep-TagBFP-TPX2 (human, UniProt Q9ULW0-1 1-747); test: recruitment to microtubules in vitro
T1 sequence: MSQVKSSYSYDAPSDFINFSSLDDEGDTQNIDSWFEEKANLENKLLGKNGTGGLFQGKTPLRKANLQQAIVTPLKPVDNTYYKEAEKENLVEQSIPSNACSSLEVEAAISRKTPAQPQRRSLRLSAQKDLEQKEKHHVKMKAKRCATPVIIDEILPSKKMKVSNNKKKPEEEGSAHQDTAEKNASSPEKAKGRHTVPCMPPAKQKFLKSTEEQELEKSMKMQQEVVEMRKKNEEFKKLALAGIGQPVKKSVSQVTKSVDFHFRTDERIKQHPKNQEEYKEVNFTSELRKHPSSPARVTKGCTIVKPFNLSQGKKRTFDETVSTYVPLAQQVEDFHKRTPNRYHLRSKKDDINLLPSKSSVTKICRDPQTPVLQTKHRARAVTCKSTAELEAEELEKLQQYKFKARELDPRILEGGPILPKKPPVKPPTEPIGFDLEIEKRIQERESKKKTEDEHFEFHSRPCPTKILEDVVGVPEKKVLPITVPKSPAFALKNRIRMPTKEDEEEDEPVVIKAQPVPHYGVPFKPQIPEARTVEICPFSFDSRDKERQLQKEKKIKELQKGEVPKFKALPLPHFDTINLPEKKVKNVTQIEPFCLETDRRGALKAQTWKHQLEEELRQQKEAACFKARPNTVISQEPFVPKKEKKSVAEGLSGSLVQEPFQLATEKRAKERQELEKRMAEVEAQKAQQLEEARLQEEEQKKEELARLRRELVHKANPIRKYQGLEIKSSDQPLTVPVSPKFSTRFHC

[6] = target: WDR62 FL WT-GFP-Strep (human, UniProt O43379-4 1-1523); test: recruitment to microtubules in vitro

## WDR62 C3, 1001-1523 (from UniProt O43379) C3 T1053A
[1]
  binding against the reference: lost

## WDR62 WD-GFP-Strep (from UniProt O43379-4 1-790) (domain or fragment)
[2]
  fold affinity for GMPCPP-stabilized MTs against the FL protein: 4 fold and 5 fold

## p60/TagBFP-p80 (from UniProt O43379-4;Q8BG40) (complex)
[3]
  breakage frequency of WDR62 N2-decorated curved MTs in live MRC5 cells: 95%

## p60/TagBFP-p80 R615A (from UniProt O43379-4;Q8BG40) (complex)
[3]
  breakage frequency of WDR62 N2-decorated curved MTs in live MRC5 cells: 95%

B1: trxA-6xHis-WDR62 M1 (domain or fragment)
chain: LAFHAKRSYQPHGRWAERAGQEPLKTILDAQDLDCYFTPMKPES
[4]
  binding result: binds

B2: Strep-GFP–Aurora A (natural protein)
chain: MDRSKENCISGPVKATAPVGGPKRVLVTQQFPCQNPLPVNSGQAQRVLCPSNSSQRIPLQAQKLVSSHKPVQNQKQKQLQATSVPHPVSRPLNNTQKSKQPLPSAPENNPEEELASKQKNEESKKRQWALEDFEIGRPLGKGKFGNVYLAREKQSKFILALKVLFKAQLEKAGVEHQLRREVEIQSHLRHPNILRLYGYFHDATRVYLILEYAPLGTVYRELQKLSKFDEQRTATYITELANALSYCHSKRVIHRDIKPENLLLGSAGELKIADFGWSVHAPSSRRTTLCGTLDYLPPEMIEGRMHDEKVDLWSLGVLCYEFLVGKPPFEANTYQETYKRISRVEFTFPDFVTEGARDLISRLLKHNPSQRPMLREVLEHPWITANSSKPSNCQNKESASKQS
[5]
  binding result: binds

B3: TPX2/TagBFP–Aurora A complex (complex)
chain 1: MSQVKSSYSYDAPSDFINFSSLDDEGDTQNIDSWFEEKANLENKLLGKNGTGGLFQGKTPLRKANLQQAIVTPLKPVDNTYYKEAEKENLVEQSIPSNACSSLEVEAAISRKTPAQPQRRSLRLSAQKDLEQKEKHHVKMKAKRCATPVIIDEILPSKKMKVSNNKKKPEEEGSAHQDTAEKNASSPEKAKGRHTVPCMPPAKQKFLKSTEEQELEKSMKMQQEVVEMRKKNEEFKKLALAGIGQPVKKSVSQVTKSVDFHFRTDERIKQHPKNQEEYKEVNFTSELRKHPSSPARVTKGCTIVKPFNLSQGKKRTFDETVSTYVPLAQQVEDFHKRTPNRYHLRSKKDDINLLPSKSSVTKICRDPQTPVLQTKHRARAVTCKSTAELEAEELEKLQQYKFKARELDPRILEGGPILPKKPPVKPPTEPIGFDLEIEKRIQERESKKKTEDEHFEFHSRPCPTKILEDVVGVPEKKVLPITVPKSPAFALKNRIRMPTKEDEEEDEPVVIKAQPVPHYGVPFKPQIPEARTVEICPFSFDSRDKERQLQKEKKIKELQKGEVPKFKALPLPHFDTINLPEKKVKNVTQIEPFCLETDRRGALKAQTWKHQLEEELRQQKEAACFKARPNTVISQEPFVPKKEKKSVAEGLSGSLVQEPFQLATEKRAKERQELEKRMAEVEAQKAQQLEEARLQEEEQKKEELARLRRELVHKANPIRKYQGLEIKSSDQPLTVPVSPKFSTRFHC
chain 2: MDRSKENCISGPVKATAPVGGPKRVLVTQQFPCQNPLPVNSGQAQRVLCPSNSSQRIPLQAQKLVSSHKPVQNQKQKQLQATSVPHPVSRPLNNTQKSKQPLPSAPENNPEEELASKQKNEESKKRQWALEDFEIGRPLGKGKFGNVYLAREKQSKFILALKVLFKAQLEKAGVEHQLRREVEIQSHLRHPNILRLYGYFHDATRVYLILEYAPLGTVYRELQKLSKFDEQRTATYITELANALSYCHSKRVIHRDIKPENLLLGSAGELKIADFGWSVHAPSSRRTTLCGTLDYLPPEMIEGRMHDEKVDLWSLGVLCYEFLVGKPPFEANTYQETYKRISRVEFTFPDFVTEGARDLISRLLKHNPSQRPMLREVLEHPWITANSSKPSNCQNKESASKQS
[6]
  binding result: binds

— publication PMC8240853 (The Journal of Cell Biology, 2021)
